Consider 3 molecules from US20260028399A1.

Experiment [1] has as its target T1, human CD96 (human) (UniProt P40200).
T1 sequence: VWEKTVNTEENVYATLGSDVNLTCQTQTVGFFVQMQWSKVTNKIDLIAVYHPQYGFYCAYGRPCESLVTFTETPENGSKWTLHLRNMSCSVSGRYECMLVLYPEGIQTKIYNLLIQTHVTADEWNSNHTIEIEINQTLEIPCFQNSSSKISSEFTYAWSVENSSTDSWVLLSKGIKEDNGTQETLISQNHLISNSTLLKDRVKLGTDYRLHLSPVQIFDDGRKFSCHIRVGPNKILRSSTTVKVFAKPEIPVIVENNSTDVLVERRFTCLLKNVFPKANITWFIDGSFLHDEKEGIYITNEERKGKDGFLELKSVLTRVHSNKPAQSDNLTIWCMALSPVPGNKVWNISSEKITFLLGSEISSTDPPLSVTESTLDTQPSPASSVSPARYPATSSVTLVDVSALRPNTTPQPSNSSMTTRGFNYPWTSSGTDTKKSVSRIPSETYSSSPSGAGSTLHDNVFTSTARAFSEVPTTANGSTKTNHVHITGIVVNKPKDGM
Put plainly: phage ELISA on coated CD96 (4 ug/ml), phage 4.8 x 10^8 pfu/ml (so in the source), anti-M13-HRP/TMB.

Experiment [2] has as its target T1, human CD96 (human). The experiment is described as follows: phage ELISA on coated CD96 (4 ug/ml), phage 9 x 10^7 pfu/ml, anti-M13-HRP/TMB.
In experiment [3] the target is T2, human TIGIT (human) (UniProt Q495A1).
T2 sequence: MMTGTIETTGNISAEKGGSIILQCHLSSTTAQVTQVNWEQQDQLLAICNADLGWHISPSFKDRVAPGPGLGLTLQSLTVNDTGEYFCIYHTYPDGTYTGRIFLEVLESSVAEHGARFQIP
The experiment is described as follows: phage ELISA on coated TIGIT (4 ug/ml), phage 2.5 x 10^10 pfu/ml, anti-M13-HRP/TMB.

Experiment [4] addresses T1, human CD96 (human). The experiment is described as follows: phage ELISA on coated CD96 (4 ug/ml), phage 1 x 10^11 pfu/ml, anti-M13-HRP/TMB.
Experiment [5] deals with T1, human CD96 (human). Put plainly: phage ELISA on coated CD96 (4 ug/ml), phage 3.7 x 10^8 pfu/ml, anti-M13-HRP/TMB.
Experiment [6] addresses T1, human CD96 (human). The experiment is described as follows: phage ELISA on coated CD96 (4 ug/ml), phage 1.2 x 10^10 pfu/ml, anti-M13-HRP/TMB.
The target of experiment [7] is T2, human TIGIT (human). Put plainly: phage ELISA on coated TIGIT (4 ug/ml), phage 0 pfu/ml (no phage, background), anti-M13-HRP/TMB.
The target of experiment [8] is T2, human TIGIT (human). Put plainly: phage ELISA on coated TIGIT (4 ug/ml), phage 1.2 x 10^10 pfu/ml, anti-M13-HRP/TMB.
In experiment [9] the target is T2, human TIGIT (human). Put plainly: phage ELISA on coated TIGIT (4 ug/ml), phage 3 x 10^9 pfu/ml, anti-M13-HRP/TMB.
Experiment [10] addresses T1, human CD96 (human). The experiment is described as follows: phage ELISA on coated CD96 (4 ug/ml), phage 0 pfu/ml (no phage, background), anti-M13-HRP/TMB.
Experiment [11] deals with T2, human TIGIT (human). Put plainly: phage ELISA on coated TIGIT (4 ug/ml), phage 6 x 10^9 pfu/ml, anti-M13-HRP/TMB.
The target of experiment [12] is T1, human CD96 (human). The experiment is described as follows: phage ELISA on coated CD96 (4 ug/ml), phage 5 x 10^10 pfu/ml, anti-M13-HRP/TMB.
The target of experiment [13] is T2, human TIGIT (human). The experiment is described as follows: phage ELISA on coated TIGIT (4 ug/ml), phage 4.8 x 10^8 pfu/ml (so in the source), anti-M13-HRP/TMB.
Experiment [14] concerns the target T1, human CD96 (human). The experiment is described as follows: phage ELISA on coated CD96 (4 ug/ml), phage 1.5 x 10^9 pfu/ml, anti-M13-HRP/TMB.
Experiment [15] deals with T2, human TIGIT (human). Put plainly: phage ELISA on coated TIGIT (4 ug/ml), phage 1.5 x 10^9 pfu/ml, anti-M13-HRP/TMB.
Experiment [16] has as its target T2, human TIGIT (human). Put plainly: phage ELISA on coated TIGIT (4 ug/ml), phage 1 x 10^11 pfu/ml, anti-M13-HRP/TMB.
Experiment [17] addresses T1, human CD96 (human). Put plainly: phage ELISA on coated CD96 (4 ug/ml), phage 6 x 10^9 pfu/ml, anti-M13-HRP/TMB.
The target of experiment [18] is T2, human TIGIT (human). Put plainly: phage ELISA on coated TIGIT (4 ug/ml), phage 5 x 10^10 pfu/ml, anti-M13-HRP/TMB.
The target of experiment [19] is T2, human TIGIT (human). The experiment is described as follows: phage ELISA on coated TIGIT (4 ug/ml), phage 3.7 x 10^8 pfu/ml, anti-M13-HRP/TMB.
The target in experiment [20] is T2, human TIGIT (human). The experiment is described as follows: phage ELISA on coated TIGIT (4 ug/ml), phage 7.5 x 10^8 pfu/ml, anti-M13-HRP/TMB.
The target of experiment [21] is T1, human CD96 (human). Put plainly: phage ELISA on coated CD96 (4 ug/ml), phage 2.5 x 10^10 pfu/ml, anti-M13-HRP/TMB.
The target of experiment [22] is T1, human CD96 (human). The experiment is described as follows: phage ELISA on coated CD96 (4 ug/ml), phage 7.5 x 10^8 pfu/ml, anti-M13-HRP/TMB.
Experiment [23] addresses T1, human CD96 (human). The experiment is described as follows: phage ELISA on coated CD96 (4 ug/ml), phage 3 x 10^9 pfu/ml, anti-M13-HRP/TMB.
Experiment [24] addresses T2, human TIGIT (human). The experiment is described as follows: phage ELISA on coated TIGIT (4 ug/ml), phage 9 x 10^7 pfu/ml, anti-M13-HRP/TMB.
Experiment [25] concerns the target BSA (UniProt P02769). The experiment is described as follows: phage ELISA on coated BSA, phage 6 x 10^9 pfu/ml, anti-M13-HRP/TMB.
Sequence of UniProt P02769 (P02769 25-607 limits assumed): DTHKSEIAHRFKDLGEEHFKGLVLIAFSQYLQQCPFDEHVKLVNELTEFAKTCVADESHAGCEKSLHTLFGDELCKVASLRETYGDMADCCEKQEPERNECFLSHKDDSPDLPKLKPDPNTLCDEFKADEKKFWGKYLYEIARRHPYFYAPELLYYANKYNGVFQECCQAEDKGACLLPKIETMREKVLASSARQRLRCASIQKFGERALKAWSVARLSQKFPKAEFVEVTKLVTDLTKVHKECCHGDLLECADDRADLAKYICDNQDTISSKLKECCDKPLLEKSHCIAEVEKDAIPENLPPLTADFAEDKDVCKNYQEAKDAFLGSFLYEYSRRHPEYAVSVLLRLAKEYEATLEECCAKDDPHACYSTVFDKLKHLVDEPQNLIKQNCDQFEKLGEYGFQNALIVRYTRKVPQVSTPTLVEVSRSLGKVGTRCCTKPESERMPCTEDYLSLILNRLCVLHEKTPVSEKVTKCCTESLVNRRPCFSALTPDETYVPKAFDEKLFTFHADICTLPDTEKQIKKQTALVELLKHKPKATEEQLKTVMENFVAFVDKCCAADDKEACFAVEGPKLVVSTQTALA
The target in experiment [26] is BSA (UniProt P02769). Put plainly: phage ELISA on coated BSA, phage 3.7 x 10^8 pfu/ml, anti-M13-HRP/TMB.
The target of experiment [27] is BSA (UniProt P02769). Put plainly: phage ELISA on coated BSA, phage 1.2 x 10^10 pfu/ml, anti-M13-HRP/TMB.
Experiment [28] has as its target BSA (UniProt P02769). The experiment is described as follows: phage ELISA on coated BSA, phage 9 x 10^7 pfu/ml, anti-M13-HRP/TMB.
The target of experiment [29] is BSA (UniProt P02769). Put plainly: phage ELISA on coated BSA, phage 4.8 x 10^8 pfu/ml (so in the source), anti-M13-HRP/TMB.
Experiment [30] has as its target BSA (UniProt P02769). The experiment is described as follows: phage ELISA on coated BSA, phage 3 x 10^9 pfu/ml, anti-M13-HRP/TMB.
For experiment [31], the target named is BSA (UniProt P02769). The experiment is described as follows: phage ELISA on coated BSA, phage 7.5 x 10^8 pfu/ml, anti-M13-HRP/TMB.
Experiment [32] addresses BSA (UniProt P02769). The experiment is described as follows: phage ELISA on coated BSA, phage 1.5 x 10^9 pfu/ml, anti-M13-HRP/TMB.
The target of experiment [33] is BSA (UniProt P02769). Put plainly: phage ELISA on coated BSA, phage 1 x 10^11 pfu/ml, anti-M13-HRP/TMB.
Experiment [34] addresses BSA (UniProt P02769). Put plainly: phage ELISA on coated BSA, phage 2.5 x 10^10 pfu/ml, anti-M13-HRP/TMB.
Experiment [35] addresses BSA (UniProt P02769). Put plainly: phage ELISA on coated BSA, phage 5 x 10^10 pfu/ml, anti-M13-HRP/TMB.
The target in experiment [36] is BSA (UniProt P02769). The experiment is described as follows: phage ELISA on coated BSA, phage 0 pfu/ml (no phage, background), anti-M13-HRP/TMB.

As for irrelevant phage, the phage ELISA signal in experiment [1] is 0.02; in experiment [2], 0.03; in experiment [3] it was 0.25; in [4] it was 0.59; in [5], 0.01; in experiment [6], 0.08. The phage ELISA signal turned out to be 0.04 in experiment [7]; 0.15 in experiment [8]; 0.07 in experiment [9]; 0.05 in experiment [10]; 0.09 in [11]; 0.31 in experiment [12]. In addition, the phage ELISA signal in [13] stood at 0.03; in [14], 0.02; in [15], 0.04; in experiment [16], 0.24; in [17], 0.08; in [18] it was 0.31. In addition, the phage ELISA signal in experiment [19] came out at 0.03; in experiment [20], 0.03; in experiment [21], 0.18; in [22], 0.02; in [23], 0.02; in experiment [24] it was 0.04.

B1: anti-TIGIT clone C2 scFv (R8P1-C2), displayed on phage (scFv, part only; not given: linker, domain order, phage fusion, V domains shown, not shown: another chain or arm of the molecule; large carriers; small tags and cut ends)
VH: GVQLVESGGDLVKPAGSLRLSCVASGFTFSNYGMSWVRQAPGKGLQWVASIASGGSATAYADAVKGRFTLSRDDAKNTLYLQMNNLRTEDTSMYYCVAPGFQYWGQGTLVTVSS
VL: DIVMTQTPLSLSVSPGETASISCKASQSLLHSNGNTYLFWFRQKSGQSPQRLIYKVSNRDPGVPDRLSGSGSGTDFTLRISRVEADDAGVYYCGQGIQIPRTFGQGTKLEIK
Regarding B1, the phage ELISA signal in experiment [25] stood at 0.03; in experiment [3] it was 2.66; in [26], 0.02; in experiment [27] it was 0.04; in experiment [7], 0.03; in experiment [8] it was 2.54. Moreover, the phage ELISA signal came out at 0.03 in [28]; 0.02 in [29]; 0.02 in experiment [30]; 0.01 in experiment [31]; 2.52 in experiment [9]; 0.02 in experiment [32]. The phage ELISA signal in [11] is 2.58; in experiment [13], 1.21; in [33], 0.07; in experiment [15] it was 2.34; in [16] it was 2.05; in [18], 2.53. Moreover, the phage ELISA signal in experiment [34] worked out at 0.04; in experiment [35], 0.04; in experiment [19], 1.61; in [20], 1.99; in experiment [24], 0.79; in experiment [36], 0.04.

B2: anti-CD96 clone G1 scFv (R7P1-G1), displayed on phage (scFv, part only; not given: linker, domain order, phage fusion, V domains shown, not shown: another chain or arm of the molecule; large carriers; small tags and cut ends)
VH: EVQLVESGGDLVKPAGSLRLSCVASGFPFSDSDMNWVRQAPGKGLQWVAGIDEGATDTGYADAVKGRFTISRDDAKNTLYLQMNSLRADDTAMYYCAAGGNFAYWGQGTLVTVSS
VL: DIVMTQTPLSLSVSPGEPASISCKASQSLLHSNGNTYLYWFRQKPGQSPQGLIYLVSKRFSWVPDRFSGSGSGTDFTLRISRVEADDAGLYYCGQGIQYPYTFSQGTKLEIK
Take B2: the phage ELISA signal stood at 0.02 in [25]; 0.63 in [1]; 0.38 in experiment [2]; 2.61 in experiment [4]; 0.02 in experiment [26]; 0.95 in experiment [5]. Besides, the phage ELISA signal in experiment [27] turned out to be 0.02; in [6], 2.59; in [28], 0.03; in experiment [29], 0.01; in experiment [30], 0.02; in experiment [31], 0.01. Besides, the phage ELISA signal came out at 0.02 in experiment [32]; 0.05 in experiment [10]; 2.68 in experiment [12]; 1.73 in [14]; 0.06 in experiment [33]; 2.28 in [17]. For the same molecule, the phage ELISA signal in [34] stood at 0.03; in experiment [35], 0.04; in experiment [21], 2.65; in [22], 1.36; in experiment [23] it was 2.11; in experiment [36], 0.05.
